Assay results as given in paper PMC8428690.
Read-outs that look alike come from different tables or passages of the source.

Assays:
[1] = molecular target: spTorA-GFP(Alexa532) (E. coli | not stated); assay: co-sedimentation; competition, apparent KD: spTorA-GFP(Alexa532) 50 nM pre-incubated with various concentrations of TorD (10 min, 37°C), then with Tat++ IMVs (A280 = 5; 10 min, 37°C), pelleted (32,000 g, 4°C, 10 min); IMV-bound precursor by in-gel fluorescence; high-BSA translocation buffer
[2] = molecular target: TorD-H6 (Escherichia coli TorD, 6xHis tagged) (E. coli) (UniProt P36662); assay: SEC; Ni-NTA purified TorD alone, ~170 μM total load; Superdex 75 10/300 GL, FPLC buffer (5 mM MgCl2, 150 mM NaCl, 25 mM MOPS, 25 mM MES, 25% glycerol, pH 8.0), 5 mM DTT, 4°C; dimer to monomers, KD estimated from the monomer/dimer ratio
[3] = molecular target: H6-spTorA-mCherry (E. coli | not stated); assay: SEC; substrate (~7 μM) mixed with TorD 1:1 or 1:2, 10 min at 37°C in FPLC buffer with 5 mM DTT, then Superdex 75 at 4°C; fractions analysed by anti-6xHis Western blot
[4] = molecular target: spTorA-GFP(Alexa532) (E. coli | not stated); assay: co-sedimentation; competition, apparent KD: spTorA-GFP(Alexa532) 50 nM pre-incubated with various concentrations of TorD (10 min, 37°C), then with Tat++ IMVs (A280 = 5; 10 min, 37°C), pelleted (32,000 g, 4°C, 10 min); IMV-bound precursor by in-gel fluorescence; high-BSA translocation buffer; remark: listed apart in the source
[5] = molecular target: H6-spTorA-mCherry (E. coli | not stated); assay: SEC; fractions 19-21 of the purified 1:1 TorD/spTorA-mCherry complex pooled, centrifuged and at once re-run on the column (~2.3-3.5 μM total TorD); KD estimated from the ratio of the peaks

Sequence of spTorA-GFP(Alexa532) (E. coli | not stated) (P33225 1-39, tags left off): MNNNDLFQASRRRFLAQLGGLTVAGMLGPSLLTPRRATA
Sequence of H6-spTorA-mCherry (E. coli | not stated) (P33225 1-39 limits assumed): as the sequence (P33225 1-39, tags left off) above

Kd [1]: 1300 nM
percent inhibition of spTorA-GFP binding to Tat++ IMVs at ~1 μM TorD [1]: 50%
Kd [2]: > 50000 nM
stoichiometry N [3]: 1
Kd [4]: 800 nM
Kd [5]: 1500 nM
B1: TorD-H6 (Escherichia coli TorD, 6xHis tagged) (natural protein)
chain: MTTLTAQQIACVYAWLAQLFSRELDDEQLTQIASAQMAEWFSLLKSEPPLTAAVNELENRIATLTVRDDARLELAADFCGLFLMTDKQAALPYASAYKQDEQEIKRLLVEAGMETSGNFNEPADHLAIYLELLSHLHFSLGEGTVPARRIDSLRQKTLTALWQWLPEFVARCRQYDSFGFYAALSQLLLVLVECDHQNR
